The DeepSol protein solubility set

Assay: soluble on expression in E. coli; label from the status in PepcDB or PDB records

| Sequence | soluble on expression in E. coli |
| --- | --- |
| MLTFALTIVRAGETQYNRDKLLQGQGIDTPLSDTGHQQAAAAGRYLKDLHFTNVFVSNLQRAIQTAEIILGNNLHSSATEMILDPLLRERGFGVAEGRPKEHLKNMANAAGQSCRDYTPPGGETLEQVKTRFKMFLKSLFQRMFEEHGSALSSVPSEADQPVIAGLADDGAQNVPVHALMVSHGAFIRISVRHLVEDLQCCLPAGLKMNQVFSPCPNTGISRFIFTIHREESVLRATRIQGVFINRKDHLEEVKNSDLEHHHHHH | soluble |
| RCPELYRGVVMLDSPVLGLADKLFIRAAKRLGFIDRITPAGRTLGRRDAFADLDAARTYFASKTLFRRFDPDCLTAYLQHGLQQDGEQLRLRFDPATEISIYRSIPHTSPLPSRQLKVPLAMVRGKHSRVIMPHHGYLARRMRDGEYLSMPGGHMFPLERPDETAQLLKSLFARWDA | not soluble |
| MGSDKIHHHHHHMNKSIRSSTLTRIRLIEAASQVFASLGVQGATTREIARVAGVNEVTLFRHFASKEQLLGAVIKNALALQTEALAYPEAWTQDLKIDLRQYAHLYNTMLEAQEDLIRTFIGEAKRHPEAAKQVIQEAAKPLREKLVAYLESSQKLGTVRVDLAPFPAVDMFTGMLLAGMLCRSAKFNQGSYSCEDYIETCVDIFVRGISTSNSSQCGCKF | not soluble |
| FSDISSLQRFVKFSQSDWLVEMLAQERFTSHFQPIVSMKNTSEIYGYEALLRGLDEQGNLIPPQPIVELATEAGLLPQLDRIARLSTIAQFSSHQVSGQIFINFAPTAVYDPASCLKSTVEAIDQAGISHERVVFEVVESDSPQDLDHLKAVLKYYRDAGFSIALDDLGSGYSSLNLLHQLRPDFIKLDMELIRDVHQDLYKASITEKLLEIAQKLNIRTVAEGIECIEELNWVQERGATFAQGYLIAKP | not soluble |
| MLEKIYSVLGTGSCLVKDGEIIESYLLSDEEVKLIEKIAKVIPFLPEKFKVGFFEHEGGRIIAIKHGEVFICFPARSDNVMSELRKVEVEVYDKILSP | not soluble |
| MGSDKIHHHHHHMSIEQLADLTQPQRDRLAFVELRVRFIGEIRRQDLVSRFGIQSAAASRDLALYKELVPGNIDYDSKGKSYVLGPDFRPLFEFPPERVLSWLTQGFGDGEPMQLKAWVASESPSRLARPDLTVLASVTRAIHQGCPLAVEYHSISSGKANRQIVPFALIDDGQRWLVRAFDRESQQFRDFVITRIRNPQVLKGENPAPHEASDQDIQWTRILELDLVPHPNRPHPEISEMDYSMERGVWKMKLRAAMAGYILCKLRVDCSPTHKLNGSEHRLWLRNHLALYGVRSAVLAPGYESPEPVGQEQDGD | not soluble |
| VTGPTEESAVATVADWPEGLAAVLRGAADQARAAVVEFSGPEAVGDYLGVSYEDGNAATHRFIAHLPGYQGWQWAVVVASYSGADHATISEVVLVPGPTALLAPDWVPWEQRVRPGDLSPGDLLAPAKDDPRLVPGYTASGDAQVDETAAEIGLGRRWVMSAWGRAQSAQRWHDGDYGPGSAMARSTKRVCRDCGFFLPLAGSLGAMFGVCGNELSADGHVVDRQYGCGAHSDTTAPAGGSTPIYEPYDDGVLDIIEKPAES | soluble |
| MSLKSIAQEHDCLLIDLDGTVFCGRQPTGGAVQSLSQVRSRKLFVTNNASRSADEVAAHLCELGFTATGEDVVTSAQSAAHLLAGQLAPGARVLIVGTEALANEVAAVGLRPVRRFEDRPDAVVQGLSMTTGWSDLAEAALAIRAGALWVAANVDPTLPTERGLLPGNGSMVAALRTATGMDPRVAGKPAPALMTEAVARGDFRAALVVGDRLDTDIEGANAAGLPSLMVLTGVNSAWDAVYAEPVRRPTYIGHDLRSLHQDSKLLAVAPQPGWQIDVGGGAVTVCANGDVDDLEFIDDGLSIVRAVASAVWEARAADLHQRPLRIEAGDERARAALQRWSLMRSDHPVTSVGTQEGHHHHHH | not soluble |
| MGSDKIHHHHHHMKKYVLSLALLGSLLGASELKYQEFDGFKSPESIFVDKNYVYVSNVGEKLEPLAKDNDGFISKLDKNGKVLEYKFLTHLNAPKGMMEIGKTLYVVDIDVLRGFDLKTKKEIFNLPIKGAIFLNDIEKLDDNTLLVSDTGTGLILKVDLKTKQYDELLKLDLAKFGGPNGLYLDRKKHKLFIAGYHPDGVSGGVVMAYDLNTKELSIIKNEKESYDGIVPYKDGLLVSSWGNNLNGYIYNLDNVKSVKLELPLMKGPADIFIEGNILWIPKMVEGKIFKVELNK | not soluble |
| MGSDKIHHHHHHMIRLFEYDSKQAQSLSQVPVHQPSIIRVIHGEKSLLWQDESVLVGQGQLLLIPAGSHISFVNRPFLGRYRAVQLLLPHDLPQGILSSTADWRDPMPVQNVSRAVDLAWNALLQSLSLSLADSVQLHYLAALLLSLPDKRSVNWLYGHTQRSVTQAALALMSVSPSAPWQQEEIADKLHMSTASLRRKLVLEDTSFRQLLVEVRLSHGLAMLQNSGEPLLQVALACGYQSAEKFSLRFKQQFGLTPAAYRRTL | not soluble |
| MGSDKIHHHHHHMAKADLDKDPFDVASMFDDVGKNYDLTNTVLSFGQDRVWRKRTRQRLDLKPGEKVLDLAAGTAVSTVELAKSGAFCVACDFSQGMLAAGKDRDVSKVVGDGMQLPFADNSFDAVTISYGLRNIHDFRAGLKEMARVTKPGGRLTVAEFSTPVIPVFGTVYKEYLMRLLPQAARAVSSNPEAYIYLADSIRAWPSQAELAREINQNGWSDCGWQNLTFGIVALHSAIKPEN | not soluble |
| MGSDKIHHHHHHMNAQIQIIKTAQGHMALCQDTPKDIAPAWFAVDFWRAKDAVVGSSKGRYTTWFVAFEHSHWVLRHYWRGGLMEKFSKDAYVYTGLENTRAMAELRLLNILYHEDFAVPKPIAANIVRDGLFYRADIIIERVEGAEDLVAKLSKGLMNTEQWQALGATIAQFHQRGVYHADLNAKNILFQPAQTAPITPERFYLIDFDRGELKTPSPQWQQSNLDRLLRSFNKEQGKLPSLAFTADNWSSLMMGYQAAMQSA | not soluble |
| MSKDEIKKPVVLIYCDTIEGTNIYLKKICEGLEEEGVPFQIQQVEKVEDSVEVLAQNASRNSNLGIGIGVLKNGDCALLQRRLPPNLPIQTLRGEKYDPNLYRNIGINAARLAKNLPLVFA | not soluble |
| MSESCNSLTVVFTDSPKIDDHLFAKAIRWADQNPDDTIFWARRKALERIPEIDVEFSMKAGALRRIRFGYSSKKLLQGCIDIALKASIGSEVAAIFCSMSIPQDCPELGCLLAALANFCNVDDGRAVVVIDLRDDNDDEKQEGVEESDPFENANFLEEEIVENPKELSNEPRETQTQEEFLEKLKRVASIYTKNVLLFDGNEEKFSNCF | not soluble |
| MSLDVSEGGVTVSVPTASGGGEGAADDVFFNATQELNRDLTVATLAAFREREPRAASYLDAMTASGIRGVRAANAGWDVTMADVDADAVELATSNLARNGLDGEVVARDANSLLHDHDRVLDVVDIDPFGSPMPFADAAFANARNLVCVTATDTAPLCGAHFESGVRKYSATPRNTNYHAEMGLRILLGALARTAARYDVGVTPILSHVSDHYVRTYLELDHRATDANAAVEQVGHVYHCQQCLSRDHEYGLVAAPRAECPRCGGHQVLTAGPLWLGPAHEEAFAASVREQLTREMGEASQAFHLLQTIEGELHEPTHYDQHRLYSQWGEPAVGMAEFLDQLRDAGLRASRTHFGGTTFKTDGGLAEVEAAVLEGHHHHHH | not soluble |
| MIFEQGIEIKASATVVEQCFTDLDLMHLWLNPALRCEPIGQWSTAIGGRSRFTIQIPLLKPSLKSVVVERSPGLVVWQFKGFFQGQDRWECRPLEEGTYLLNRFEFTVPNPVVQWGFQMFAARWTSADMQAQLRRLKQVAEREYINSLEHHHHHH | not soluble |
| MGSDKIHHHHHHMDIAMVYSDRLLSPQIPPSRKLRVLKEVEIRLIEGEEQEVEELIMQIHSEEYFSRIRSHPFFENAVENVKCILTGLKALKDYDAVIVPVTTAGHLAEQSRMRGYCLLNGLAIAVKAAESYGRIAVIETDAHHGKASIVSEERATFFCIGRRECEISEDLRCVLGRRMGKDYVKSFEELVERVKEYDPNLVIWYLGLDLDSREYAEMPFGREEWEKLVKNFMKMAEGRKSLIMLALGLRDDVLKDIVGLFAGW | not soluble |
| MPGIIQIDDMNQSQALIGNNDEHLKAIEESFDVVIHARGQEVAVKGTKIENVEKAESVLINLLKVIDLGNNITIKDVEAAIKMAHNNTIQHLLDLYDEEITKDAFGKTIRAKTMGQRIYVNAMKNNDLVFGIGPAGTGKTFLAVVYAAKQLRKGAVKRIVLTRPAVEAGESLGFLPGDLKEKVDPYLRPLYDGLYTVLGREQTERFIERGIIEIAPLAYMRGRTLEDAFVILDEAQNTTHAQMKMFLTRLGFGSKMVVTGDQTQIDLPKGVKSGLKEAVSRLHNVKGISILKLDQSDVVRHPLVSKIIEHYEGEN | not soluble |
| GPGSMKKFMLNTKASLGLVGEKTVDEDYNKRSASLKALNEALNEYSTAMDKAKHAMREVMHSLGKASKAFEKLNSGSCIPEPLKDFSEDFKKAIEHLQQYALQEFMNTMETTVIKTGHAIRADYEECVRVDQQRQKTVNEYDVYRSAVDKKETEYAKKGKDLKESKTYEEDTKTRDELKADYEASDKLFKSSHDALESNVVSKGRLCMREFFCCTSEFLSALSTEMKRLHEKSLLLGA | not soluble |
| MSLYRVFEALDELSAIVEEARGVPMTAGCVVPRGDVLELIDDIKDAIPGELDDAQDVLDARDSMLQDAKTHADSMVSSATTEAESILNHARTEADRILSDAKAQADRMVSEARQHSERMVADAREEAIRIATAAKREYEASVSRAQAECDRLIENGNISYEKAVQEGIKEQQRLVSQNEVVAAANAESTRLVDTAHAEADRLRGECDIYVDNKLAEFEEFLNGTLRSVGRGRHQLRTAAGTHDYAVREGHHHHHH | soluble |
| MDYRFGRQYRLLKTDDFSSVFAFRNRRSRDLLQVSRSNGNGLGHPRIGLVVGKKTAKRANERNYMKRVIRDWFRLNKNRLPPQDFVVRVHRKFDRATAKQARAELAQLMFGNPATGCRKQA | not soluble |
| IVGGKVCPKGECPWQVLLLVNGAQLCGGTLINTIWVVSAAHCFDKIKNWRNLIAVLGEHDLSEHDGDEQSRRVAQVIIPSTYVPGTTNHDIALLRLHQPVVLTDHVVPLCLPERTFSERTLAFVRFSLVSGWGQLLDRGATALELMVLNVPRLMTQDCLQQSRKVGDSPNITEYMFCAGYSDGSKDSCKGDSGGPHATHYRGTWYLTGIVSWGQGCATVGHFGVYTRVSQYIEWLQKLMRSEPRPGVLLRAPFP | soluble |
| MGSDKIHHHHHHMTEKTTAELENLRGLIDGVDSQLLSLLRKRLDLVAQVGTVKHAAGLPIYAPAREAAMLGKRRAEAEAMGVSPQLIEDILRRLMRESYMSEKDVGFKQVNPELGHIVIIGGQGQLGRLFAQMFALSGYEVRLLDKDDWDHADELFDGAGLVLVTVPIATTCSLIRERLDHLPEHCILADLTSVKGAPLKAMLETHKGPVVGLHPMFGPDVGSLAKQVVVVCHGRAPEKYQWLMEQIGIWGARLVEADAGRHDKAMQLVQAMRHFSSFVYGLNLCREQADIDTLLEFSSPIYRLELAMVGRLFAQSGELYADIIFAQEESLTAISDFIDNYRDALELLKTGDRAGFIARFNEVSNWFGNYSQQFLTESRAMLQSVNDMRSV | not soluble |
